In patent publication US20100324829A1, “METHOD OF SELECTING HLA-DP4 LIGANDS AND THE APPLICATIONS THEREOF” (priority 2001, published 2010):

molecular target: T1, DP401 encoded by the DPA1*0103/DPB1*0401 allele (Homo sapiens, UniProt P04440+P20036); conditions: in words, summary of table V
T1 sequence (P20036 29-260): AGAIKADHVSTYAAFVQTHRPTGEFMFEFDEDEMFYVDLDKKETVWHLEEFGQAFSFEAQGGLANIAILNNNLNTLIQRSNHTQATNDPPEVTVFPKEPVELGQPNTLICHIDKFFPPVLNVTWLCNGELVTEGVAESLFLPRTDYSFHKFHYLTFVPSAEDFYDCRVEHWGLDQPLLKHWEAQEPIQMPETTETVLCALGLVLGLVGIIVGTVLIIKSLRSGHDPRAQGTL
T1 sequence (P04440 30-258): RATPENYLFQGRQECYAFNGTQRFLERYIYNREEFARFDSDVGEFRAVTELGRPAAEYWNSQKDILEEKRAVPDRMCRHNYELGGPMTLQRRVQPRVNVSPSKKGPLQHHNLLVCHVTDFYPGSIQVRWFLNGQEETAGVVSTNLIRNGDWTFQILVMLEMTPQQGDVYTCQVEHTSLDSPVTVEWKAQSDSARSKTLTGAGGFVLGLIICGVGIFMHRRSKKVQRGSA

Sequence | DP4-binding capacity
FNNFTVSFWLRVPKVSA [bTT 947-963] | low
GPGAPADVQYDLYLNVANRR [bIL3 127-146, reference compound] | high
GVQIVRQIRSGERFLKIWSQ [bNS-p2, reference compound] | intermediate
IAFNSGMEPGVVAEKV [bMT 451-466, reference compound] | low
LLTQHFVQENYLEY [bMAG 245-258] | intermediate
RELWWVFYAGDRALEEPHAE [bUL21 283-302] | intermediate
